Measurements as given in article PMC4482077.

Experiments:
Assay in all cases: AUC
[1] = target: E. faecalis S613 LiaR (wild type, full length) (Enterococcus faecalis S613)
[2] = target: LiaR^(DBD), isolated DNA binding domain of wild-type E. faecalis S613 LiaR (residues 140-206) (Enterococcus faecalis S613)
[3] = target: LiaR^(DBD)D191N, isolated DNA binding domain of E. faecalis S613 LiaR (residues 140-206) with D191N (Enterococcus faecalis S613)
[4] = target: LiaR^D50E (phosphomimetic mutant of E. faecalis S613 LiaR) (Enterococcus faecalis S613)
[5] = target: LiaR^D191N (adaptive mutant of E. faecalis S613 LiaR) (Enterococcus faecalis S613)

For “E. faecalis S613 LiaR (wild type, full length) (natural protein)”, which Kd [1] is on record?
Its Kd is 24000 nM.

And the stoichiometry N [1]?
The stoichiometry N was 4.

What does the source list for “LiaR^(DBD), isolated DNA binding domain of wild-type E. faecalis S613 LiaR (residues 140-206) (domain or fragment)”?
Kd [2]: 2000 nM; stoichiometry N [2]: 2

For “LiaR^(DBD)D191N, isolated DNA binding domain of E. faecalis S613 LiaR (residues 140-206) with D191N (domain or fragment)”, which Kd [3] is on record?
Its Kd is < 40 nM.

And the stoichiometry N [3]?
The stoichiometry N was 2.

For “LiaR^D50E (phosphomimetic mutant of E. faecalis S613 LiaR) (natural protein)”, which stoichiometry N [4] is on record?
Its stoichiometry N is 4.

What does the source list for “LiaR^D191N (adaptive mutant of E. faecalis S613 LiaR) (natural protein)”?
Kd [5]: < 60 nM; stoichiometry N [5]: 4
